Experimental data taken from paper PMC10837205 (Cell Research, 2024).

Molecular target: T1, biotinylated soluble human LDLR (sohLDLR) (human, UniProt P01130-1 22-788, biotin (biotinylated; site not stated))
T1 construct: also called biotinylated LDLR; soluble biotinylated LDLR; source: bought: SinoBiological #10231-H08H-B
Experiment: BLI
Details: both partners purified

T1 sequence (P01130 22-788): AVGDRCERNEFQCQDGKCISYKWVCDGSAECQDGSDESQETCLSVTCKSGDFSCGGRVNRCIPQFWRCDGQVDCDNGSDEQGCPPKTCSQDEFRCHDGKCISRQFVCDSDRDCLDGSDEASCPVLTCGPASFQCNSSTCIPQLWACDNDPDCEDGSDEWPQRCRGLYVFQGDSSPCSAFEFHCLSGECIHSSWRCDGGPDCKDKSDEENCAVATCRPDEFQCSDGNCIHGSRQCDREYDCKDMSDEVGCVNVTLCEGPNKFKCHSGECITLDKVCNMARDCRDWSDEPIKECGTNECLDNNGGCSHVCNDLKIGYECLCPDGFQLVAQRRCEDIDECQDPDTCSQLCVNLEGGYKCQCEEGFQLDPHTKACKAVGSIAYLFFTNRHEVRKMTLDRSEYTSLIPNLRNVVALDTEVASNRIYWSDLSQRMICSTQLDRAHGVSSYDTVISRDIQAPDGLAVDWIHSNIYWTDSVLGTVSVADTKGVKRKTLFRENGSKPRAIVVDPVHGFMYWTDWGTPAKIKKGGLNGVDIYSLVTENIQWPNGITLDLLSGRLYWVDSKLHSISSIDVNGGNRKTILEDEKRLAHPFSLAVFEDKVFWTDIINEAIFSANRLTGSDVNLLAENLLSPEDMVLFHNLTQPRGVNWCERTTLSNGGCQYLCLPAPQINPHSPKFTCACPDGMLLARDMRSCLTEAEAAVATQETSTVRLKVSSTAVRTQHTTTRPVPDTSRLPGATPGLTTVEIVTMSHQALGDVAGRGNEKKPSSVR

B1: VSV G protein (Indiana strain) (natural protein)
chain: KFTIVFPHNQKGNWKNVPSNYHYCPSSSDLNWHNDLIGTAIQVKMPKSHKAIQADGWMCHASKWVTTCDFRWYGPKYITQSIRSFTPSVEQCKESIEQTKQGTWLNPGFPPQSCGYATVTDAEAVIVQVTPHHVLVDEYTGEWVDSQFINGKCSNYICPTVHNSTTWHSDYKVKGLCDSNLISMDITFFSEDGELSSLGKEGTGFRSNYFAYETGGKACKMQYCKHWGVRLPSGVWFEMADKDLFAAARFPECPEGSSISAPSQTSVDVSLIQDVERILDYSLCQETWSKIRAGLPISPVDLSYLAPKNPGTGPAFTIINGTLKYFETRYIRVDIAAPILSRMVGMISGTTTERELWDDWAPYEDVEIGPNGVLRTSSGYKFPLYMIGHGMLDSDLHLSSKAQVFEHPHIQDAASQLPDDESLFFGDTGLSKNPIELVEGWFSSWKSSIASFFFIIGLIIGLFLVLRVGIHLCIKLKHTKKRQIYTDIEMNRLGK
- Kd: 54.3 nM
